This note sets out measurements from patent US20120045437A1 (BOARD OF REGENTS OF THE UNIVERSITY OF OKLAHOMA, published 2012).

One assay deals with T1, LRP6E3E4-His (human, UniProt O75581 631-1244).
T1 construct: Expressed in E. coli BL21(DE3); Only its E3E4 part stood in the assay; also called E3E4 domain of LRP6; not shown: His tag from pET28b+
T1 sequence: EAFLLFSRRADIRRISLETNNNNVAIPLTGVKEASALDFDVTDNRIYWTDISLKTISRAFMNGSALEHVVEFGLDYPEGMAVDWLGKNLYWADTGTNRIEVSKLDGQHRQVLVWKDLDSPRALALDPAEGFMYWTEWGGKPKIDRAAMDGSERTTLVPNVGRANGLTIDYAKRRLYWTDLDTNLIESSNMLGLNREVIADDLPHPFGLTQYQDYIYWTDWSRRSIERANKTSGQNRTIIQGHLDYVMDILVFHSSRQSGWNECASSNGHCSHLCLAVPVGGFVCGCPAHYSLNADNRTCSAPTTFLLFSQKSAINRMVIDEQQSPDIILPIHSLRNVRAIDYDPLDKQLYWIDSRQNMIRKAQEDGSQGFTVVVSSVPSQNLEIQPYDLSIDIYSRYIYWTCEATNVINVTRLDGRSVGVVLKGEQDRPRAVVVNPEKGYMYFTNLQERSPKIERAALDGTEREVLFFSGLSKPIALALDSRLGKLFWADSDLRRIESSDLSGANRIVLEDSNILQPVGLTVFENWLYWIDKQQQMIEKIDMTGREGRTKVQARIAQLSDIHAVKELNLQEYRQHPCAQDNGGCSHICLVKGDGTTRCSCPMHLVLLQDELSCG
The experiment in a line: Western blot, purified recombinant fragment. As for the experimental part:
(§1) FIG. 15 illustrates specificity of Anti-LRP6-1 on LRP6 ectodomain. A: HEK-293T cells were separately transfected with plasmids expressing LRP5-Flag and LRP6-Myc, with an empty vector as control. Forty-eight hours post-transfection, total cell lysates (50 μg) were applied for Western blot analysis using Anti-LRP6-1 and an anti-Flag antibody (M2). B: The ability of Anti-LRP6-1 to recognize endogenous LRP6 in different species. Total cell lysates (50 μg) from each cell line were applied for Western blot analysis using Anti-LRP6-1. C: Conditioned media containing LDLRN-Myc, LRP5N-Myc and LRP6N-Myc, and purified recombinant peptides of VLDLR-N-His, LRP6E1E2-His and LRP6E3E4-His were loaded for Western blot analysis using Anti-LRP6-1, anti-His and anti-Myc antibodies. D: Immuno-localization of LRP6 in the retinal cryosections. FITC-labeled Anti-LRP6-1 was used to determine the cellular localization of LRP6 in the retinas of rats (D1-D6) and mice (D7-D12). Non-specific mouse IgG was labeled with FITC and used as a negative control (D1, D4, D7, D10). The sections were stained with FITC-Anti-LRP6-1 (D2, D5, D8, D11). FITC-Anti-LRP6-1 pre-absorbed with 10 μg/ml purified LRP6E1E2-His antigen was used for staining to confirm the specificity of the immunosignals of LRP6 (D3, D6, D9, D12).
(In general: A western blot detects proteins with antibodies after separation by electrophoresis.)

Assay [1] deals with T2, LRP5-Flag (human full-length LRP5) (human, UniProt O75197 32-1615).
T2 construct: Tested as total lysate of transfected HEK-293T cells in a Western blot; not shown: Flag tag
T2 sequence (O75197 32-1615 limits assumed): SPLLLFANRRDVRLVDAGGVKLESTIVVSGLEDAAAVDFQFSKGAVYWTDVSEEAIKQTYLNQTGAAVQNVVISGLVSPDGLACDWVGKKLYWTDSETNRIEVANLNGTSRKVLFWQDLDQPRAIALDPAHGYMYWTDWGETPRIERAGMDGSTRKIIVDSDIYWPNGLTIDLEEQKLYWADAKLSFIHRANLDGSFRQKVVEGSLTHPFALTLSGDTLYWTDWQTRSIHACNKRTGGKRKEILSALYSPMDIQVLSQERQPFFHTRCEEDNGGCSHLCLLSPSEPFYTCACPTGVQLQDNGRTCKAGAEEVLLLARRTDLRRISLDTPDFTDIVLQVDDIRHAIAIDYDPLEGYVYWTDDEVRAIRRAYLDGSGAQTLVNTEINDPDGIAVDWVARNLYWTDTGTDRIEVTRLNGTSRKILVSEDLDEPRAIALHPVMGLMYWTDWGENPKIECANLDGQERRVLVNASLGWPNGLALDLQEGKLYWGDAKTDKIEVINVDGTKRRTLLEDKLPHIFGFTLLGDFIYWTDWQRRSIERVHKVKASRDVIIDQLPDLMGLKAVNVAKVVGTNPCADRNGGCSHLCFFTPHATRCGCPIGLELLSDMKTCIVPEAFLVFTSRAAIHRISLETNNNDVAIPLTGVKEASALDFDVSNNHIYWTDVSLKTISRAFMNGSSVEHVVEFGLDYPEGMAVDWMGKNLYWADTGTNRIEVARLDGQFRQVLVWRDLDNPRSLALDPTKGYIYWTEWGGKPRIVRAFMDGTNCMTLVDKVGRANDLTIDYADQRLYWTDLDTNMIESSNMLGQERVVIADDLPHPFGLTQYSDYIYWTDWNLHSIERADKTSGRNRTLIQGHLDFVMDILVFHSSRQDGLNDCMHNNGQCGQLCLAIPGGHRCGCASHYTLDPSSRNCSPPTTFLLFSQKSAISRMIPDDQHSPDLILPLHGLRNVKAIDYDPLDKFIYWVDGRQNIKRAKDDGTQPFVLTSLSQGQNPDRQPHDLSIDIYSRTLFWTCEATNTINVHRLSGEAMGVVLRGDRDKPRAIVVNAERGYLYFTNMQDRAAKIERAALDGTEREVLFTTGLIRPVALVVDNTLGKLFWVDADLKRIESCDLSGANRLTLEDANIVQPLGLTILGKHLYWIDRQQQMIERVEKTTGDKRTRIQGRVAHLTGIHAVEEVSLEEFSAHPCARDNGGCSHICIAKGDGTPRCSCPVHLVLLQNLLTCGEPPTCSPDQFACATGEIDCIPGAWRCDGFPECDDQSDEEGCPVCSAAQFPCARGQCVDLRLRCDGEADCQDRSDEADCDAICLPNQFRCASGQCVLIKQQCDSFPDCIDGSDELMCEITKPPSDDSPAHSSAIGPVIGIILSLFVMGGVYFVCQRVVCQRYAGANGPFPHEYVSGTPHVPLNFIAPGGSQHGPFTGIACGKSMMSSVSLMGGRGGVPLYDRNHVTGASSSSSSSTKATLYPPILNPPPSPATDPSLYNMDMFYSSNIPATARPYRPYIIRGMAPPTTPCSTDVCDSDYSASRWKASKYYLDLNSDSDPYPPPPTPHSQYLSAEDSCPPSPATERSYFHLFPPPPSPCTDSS
The experiment in a line: Western blot, total lysates (50 ug) of transfected HEK-293T cells. Here is the method: as §1, with “A: HEK-293T” for “FIG. 15 illustrates specificity of Anti-LRP6-1 on LRP6 ectodomain. A: HEK-293T”, “D9, D12). […]” for “D9, D12).”

Another assay has as its target T3, endogenous mouse LRP6 (mouse, UniProt O88572 20-1613).
T3 construct: whole, on cells; Tested as total cell lysate (Western blot) and in mouse retinal cryosections (immunostaining); also called LRP6 (mouse)
The assay is described as follows: Western blot, total cell lysates. As for the experimental part: as §1, with “A: HEK-293T” for “FIG. 15 illustrates specificity of Anti-LRP6-1 on LRP6 ectodomain. A: HEK-293T”, “D9, D12). […]” for “D9, D12).”

The target of the next assay is endogenous human LRP6 (human, UniProt O75581 20-1613). The experiment in a line: cell-based or functional assay.
Sequence of endogenous human LRP6 (O75581 20-1613 limits assumed): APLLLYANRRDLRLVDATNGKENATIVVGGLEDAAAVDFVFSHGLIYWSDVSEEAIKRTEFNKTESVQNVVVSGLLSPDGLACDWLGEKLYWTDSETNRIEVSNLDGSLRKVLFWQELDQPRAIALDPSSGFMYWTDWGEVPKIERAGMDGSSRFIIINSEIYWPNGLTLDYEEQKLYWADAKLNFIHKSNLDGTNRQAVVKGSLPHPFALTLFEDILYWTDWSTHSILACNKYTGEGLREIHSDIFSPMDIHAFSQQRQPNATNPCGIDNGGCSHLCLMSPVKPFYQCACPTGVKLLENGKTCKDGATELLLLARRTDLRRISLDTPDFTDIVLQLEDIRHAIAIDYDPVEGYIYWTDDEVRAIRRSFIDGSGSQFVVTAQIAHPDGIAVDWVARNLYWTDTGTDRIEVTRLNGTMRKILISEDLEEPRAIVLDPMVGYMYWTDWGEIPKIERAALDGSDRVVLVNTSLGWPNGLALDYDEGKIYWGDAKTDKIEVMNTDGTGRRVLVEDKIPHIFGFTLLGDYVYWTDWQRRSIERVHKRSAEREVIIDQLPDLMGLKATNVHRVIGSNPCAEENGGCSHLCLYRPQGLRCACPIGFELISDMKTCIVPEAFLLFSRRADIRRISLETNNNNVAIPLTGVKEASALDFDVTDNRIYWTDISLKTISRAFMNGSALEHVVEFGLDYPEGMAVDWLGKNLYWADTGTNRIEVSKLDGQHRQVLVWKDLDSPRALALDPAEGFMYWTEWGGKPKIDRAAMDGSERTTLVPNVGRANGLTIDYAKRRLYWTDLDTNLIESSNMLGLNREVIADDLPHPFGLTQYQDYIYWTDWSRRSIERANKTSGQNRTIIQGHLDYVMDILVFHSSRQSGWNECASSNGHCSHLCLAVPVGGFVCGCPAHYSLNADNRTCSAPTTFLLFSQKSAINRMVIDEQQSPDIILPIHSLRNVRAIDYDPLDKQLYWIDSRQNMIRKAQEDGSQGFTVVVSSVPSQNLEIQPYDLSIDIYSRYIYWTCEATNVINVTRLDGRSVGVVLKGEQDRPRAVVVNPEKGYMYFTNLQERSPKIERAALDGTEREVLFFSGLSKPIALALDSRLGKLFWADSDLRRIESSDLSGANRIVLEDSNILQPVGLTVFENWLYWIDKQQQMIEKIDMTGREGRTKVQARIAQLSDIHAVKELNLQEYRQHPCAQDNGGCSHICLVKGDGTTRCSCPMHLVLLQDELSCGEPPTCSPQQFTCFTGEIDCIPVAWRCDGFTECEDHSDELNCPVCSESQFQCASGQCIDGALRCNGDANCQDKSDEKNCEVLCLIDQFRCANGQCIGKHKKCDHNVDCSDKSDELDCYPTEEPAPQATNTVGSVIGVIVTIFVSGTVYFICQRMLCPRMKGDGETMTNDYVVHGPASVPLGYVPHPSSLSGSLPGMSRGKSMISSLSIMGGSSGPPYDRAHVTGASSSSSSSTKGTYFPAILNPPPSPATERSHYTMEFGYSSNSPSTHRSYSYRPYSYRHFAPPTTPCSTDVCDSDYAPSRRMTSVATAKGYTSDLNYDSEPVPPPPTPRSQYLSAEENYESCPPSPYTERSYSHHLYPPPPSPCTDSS
Assay [2] deals with endogenous bovine LRP6 (bovine). The experiment in a line: cell-based or functional assay.
Another assay has as its target T4, VLDLR-N-His (human, UniProt P98155 28-797, limits assumed).
T4 construct: domain: VLDLR-N; also called very low-density lipoprotein receptor; not shown: 6x histidine tag
The assay is described as follows: Western blot, recombinant VLDLR-N-His. Here is the method: as §1

T3 sequence (O88572 20-1613): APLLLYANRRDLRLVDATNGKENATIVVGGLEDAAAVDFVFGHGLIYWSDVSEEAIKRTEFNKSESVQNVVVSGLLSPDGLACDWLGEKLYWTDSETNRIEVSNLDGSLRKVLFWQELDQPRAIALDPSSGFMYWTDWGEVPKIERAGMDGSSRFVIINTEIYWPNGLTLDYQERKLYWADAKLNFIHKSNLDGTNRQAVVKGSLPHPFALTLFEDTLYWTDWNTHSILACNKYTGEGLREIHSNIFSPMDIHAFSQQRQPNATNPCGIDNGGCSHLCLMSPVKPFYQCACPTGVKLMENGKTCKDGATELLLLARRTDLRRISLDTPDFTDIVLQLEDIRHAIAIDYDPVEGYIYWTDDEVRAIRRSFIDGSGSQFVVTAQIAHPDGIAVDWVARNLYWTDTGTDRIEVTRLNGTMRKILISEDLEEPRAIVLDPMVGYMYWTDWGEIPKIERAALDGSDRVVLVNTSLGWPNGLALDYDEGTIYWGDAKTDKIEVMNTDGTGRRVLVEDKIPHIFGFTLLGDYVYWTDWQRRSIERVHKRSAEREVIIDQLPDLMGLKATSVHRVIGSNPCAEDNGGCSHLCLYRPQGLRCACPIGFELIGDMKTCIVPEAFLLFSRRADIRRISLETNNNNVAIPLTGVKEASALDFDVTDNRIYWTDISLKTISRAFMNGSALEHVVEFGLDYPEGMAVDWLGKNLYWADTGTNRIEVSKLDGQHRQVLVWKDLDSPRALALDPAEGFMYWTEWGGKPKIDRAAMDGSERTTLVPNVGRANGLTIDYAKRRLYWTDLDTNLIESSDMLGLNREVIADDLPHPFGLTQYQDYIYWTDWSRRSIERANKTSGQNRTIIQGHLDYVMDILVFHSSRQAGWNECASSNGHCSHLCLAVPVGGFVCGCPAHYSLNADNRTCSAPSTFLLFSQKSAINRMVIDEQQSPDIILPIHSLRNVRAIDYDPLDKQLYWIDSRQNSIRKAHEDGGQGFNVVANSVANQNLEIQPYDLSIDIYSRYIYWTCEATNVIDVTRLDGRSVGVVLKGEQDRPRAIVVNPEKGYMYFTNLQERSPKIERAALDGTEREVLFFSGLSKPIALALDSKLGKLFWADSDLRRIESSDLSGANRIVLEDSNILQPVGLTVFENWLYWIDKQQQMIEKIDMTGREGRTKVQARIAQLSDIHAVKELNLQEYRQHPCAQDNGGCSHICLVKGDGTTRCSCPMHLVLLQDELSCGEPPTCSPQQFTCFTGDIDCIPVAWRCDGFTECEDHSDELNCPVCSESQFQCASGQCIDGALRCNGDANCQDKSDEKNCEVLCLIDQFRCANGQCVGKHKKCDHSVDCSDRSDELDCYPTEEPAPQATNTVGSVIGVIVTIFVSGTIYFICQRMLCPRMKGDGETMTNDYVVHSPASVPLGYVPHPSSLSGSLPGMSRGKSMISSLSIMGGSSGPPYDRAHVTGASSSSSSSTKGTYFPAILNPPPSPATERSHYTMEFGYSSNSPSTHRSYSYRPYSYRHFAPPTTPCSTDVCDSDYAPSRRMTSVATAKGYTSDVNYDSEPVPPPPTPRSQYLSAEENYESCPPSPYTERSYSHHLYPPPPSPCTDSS

B1: Anti-LRP6-1 (antibody, mouse IgG2, V domains shown)
VH: EVQLVESGGGLVQSKGSLKLSCAASGFTFNTYAMNWVRQAPGKGLEWVGRIRSKYNNYVTYYGDSVKDRFTISRDDSQSMLYLQMNNLKTEDTAMYYCVRQGRGSYAMDYWGQGTSVTVSS
VL: NIVMTQSPKSMSMSVGERVTLSCKASENVGTYVSWYQQKPEQSPKLLIYGASNRYTGVPDRFIGSGSATDFTLTIRSVQAEDLADYHCGQSYSYPTFGAGTKLELKR
notes: also called mAb2F1; 2F1
Regarding B1, the binding result with LRP6E3E4-His is given as “no binding”; in assay [1] it was “no binding”; in the assay with endogenous mouse LRP6, “binds”; with VLDLR-N-His, “no binding”. Also, in the assay with endogenous human LRP6, the “EC50 of inhibition of Wnt1-induced TOPFLASH activity (hTERT-RPE cells)” value is about 20 µg/mL. Moreover, the “EC50 of suppression of Wnt3A-induced Luciferase activity (TOPFLASH, hTERT-RPE cells)” value in the assay with endogenous human LRP6 was about 20 µg/mL. This molecule also came in with an IC50 of inhibition of LRP6 phosphorylation (Wnt3a-containing medium, RCEC, Western blot) in assay [2] of 210 to 440 nM. The IC50 of inhibition of [14C]thymidine incorporation into RCEC (proliferation, 1% O2) in assay [2] is 500 to 2000 nM.
